This passage reports IC50 (neutralizing activity, pseudovirus) and neutralization IC50 (pseudovirus) results from patent US20250320281A1.

Holding throughout (experiment): cell-based or functional assay
In assay [1] the target is HIV-1 MGRM-D-018 Env (pseudovirus) (HIV-1).
The target of assay [2] is HIV-1 92UG024 Env (pseudovirus) (HIV-1).
Assay [3] has as its target HIV-1 APV6 Env (pseudovirus) (HIV-1).
Assay [4] addresses HIV-1 MGRM-C-027 Env (pseudovirus) (HIV-1).
For assay [5], the target named is HIV-1 92TH021 Env (pseudovirus) (HIV-1).
Assay [6] addresses HIV-1 MGRM-A-010 Env (pseudovirus) (HIV-1).
For assay [7], the target named is HIV-1 93IN905 Env (pseudovirus) (HIV-1).
In assay [8] the target is HIV-1 MGRM-C-028 Env (pseudovirus) (HIV-1).
Assay [9] addresses HIV-1 NL43 Env (pseudovirus) (HIV-1).
The target in assay [10] is HIV-1 JRCSF Env (pseudovirus) (HIV-1) (UniProt P20871).
The target of assay [11] is HIV-1 94UG103 Env (pseudovirus) (HIV-1).
Assay [12] deals with HIV-1 MGRM-C-026 Env (pseudovirus) (HIV-1).
For assay [13], the target named is HIV-1 92UG005 Env (pseudovirus) (HIV-1).
The target of assay [14] is HIV-1 CMU02 Env (pseudovirus) (HIV-1).
The target of assay [15] is HIV-1 92RW020 Env (pseudovirus) (HIV-1).

Sequence of 4993_K13 (PGT-141) (antibody) (VH): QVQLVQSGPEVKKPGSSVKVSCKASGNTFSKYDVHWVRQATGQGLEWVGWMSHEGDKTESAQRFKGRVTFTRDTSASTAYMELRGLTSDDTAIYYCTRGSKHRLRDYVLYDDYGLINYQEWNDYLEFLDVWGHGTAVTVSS
Sequence of 4993_K13 (PGT-141) (antibody) (VL): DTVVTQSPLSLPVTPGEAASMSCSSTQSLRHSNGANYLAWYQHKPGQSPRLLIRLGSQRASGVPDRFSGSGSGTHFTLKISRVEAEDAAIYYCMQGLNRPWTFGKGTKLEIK
Sequence of 4995_E20 (PGT-142) (antibody) (VH): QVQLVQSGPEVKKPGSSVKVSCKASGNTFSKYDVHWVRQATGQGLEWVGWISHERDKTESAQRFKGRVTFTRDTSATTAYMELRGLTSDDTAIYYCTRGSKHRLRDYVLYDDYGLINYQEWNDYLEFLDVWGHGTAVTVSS
Sequence of 4970_K22 (PGT-144) (antibody) (VH): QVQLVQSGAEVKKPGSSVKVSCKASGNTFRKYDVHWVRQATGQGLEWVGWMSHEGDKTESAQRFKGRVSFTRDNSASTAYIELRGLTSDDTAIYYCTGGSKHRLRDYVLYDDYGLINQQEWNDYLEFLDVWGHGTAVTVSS
Sequence of 4970_K22 (PGT-144) (antibody) (VL): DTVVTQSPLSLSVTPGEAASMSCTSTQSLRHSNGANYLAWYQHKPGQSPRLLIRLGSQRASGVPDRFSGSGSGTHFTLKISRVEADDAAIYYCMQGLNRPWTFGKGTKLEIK
Sequence of 4980_N08 (PGT-143) (antibody) (VH): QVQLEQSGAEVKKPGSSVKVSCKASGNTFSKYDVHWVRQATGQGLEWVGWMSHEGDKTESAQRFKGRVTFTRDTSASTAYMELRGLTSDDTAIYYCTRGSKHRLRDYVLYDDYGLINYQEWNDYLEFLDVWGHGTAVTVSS
Sequence of 4980_N08 (PGT-143) (antibody) (VL): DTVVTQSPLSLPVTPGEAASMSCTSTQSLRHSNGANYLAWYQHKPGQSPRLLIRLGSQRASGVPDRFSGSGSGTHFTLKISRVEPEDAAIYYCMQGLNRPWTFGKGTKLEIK

With 4970_K22 (PGT-144) (antibody), the IC50 (neutralizing activity, pseudovirus) in [1] was more than 10 µg/mL; in [2], more than 10 µg/mL; in assay [3], more than 10 µg/mL; in [4], more than 10 µg/mL; in [5], 93.4 ng/mL; in [6], 4.02 µg/mL. The IC50 (neutralizing activity, pseudovirus) in assay [7] is 158 ng/mL; in [8] it was more than 10 µg/mL; in assay [9] it was more than 10 µg/mL; in [10] it was 128 ng/mL; in assay [11], more than 10 µg/mL; in assay [12], more than 10 µg/mL. Also, the IC50 (neutralizing activity, pseudovirus) in assay [13] and in [14] was more than 10 µg/mL in each case. The neutralization IC50 (pseudovirus) in assay [15] is more than 10 µg/mL.
As to 4980_N08 (PGT-143) (antibody), the IC50 (neutralizing activity, pseudovirus) is more than 10 µg/mL in [1]; more than 10 µg/mL in assay [2]; 4.43 µg/mL in [3]; 0.505 µg/mL in assay [4]; 2.8 ng/mL in [5]; 0.0657 µg/mL in [6]. The IC50 (neutralizing activity, pseudovirus) in assay [7] was 2.1 ng/mL; in assay [8], 1.82 µg/mL; in assay [9], 0.585 µg/mL; in assay [10] it was 6.4 ng/mL; in assay [11], more than 10 µg/mL; in [12], more than 10 µg/mL. For the same substance, the IC50 (neutralizing activity, pseudovirus) in [13] and in assay [14] was more than 10 µg/mL throughout. The neutralization IC50 (pseudovirus) in [15] is more than 10 µg/mL.
On to 4993_K13 (PGT-141) (antibody), for which the IC50 (neutralizing activity, pseudovirus) in assay [1] is more than 10 µg/mL; in assay [2], more than 10 µg/mL; in [3], 5.08 µg/mL; in [4] it was 0.822 µg/mL; in [5], 1.9 ng/mL; in assay [6] it was 0.0563 µg/mL. Besides, the IC50 (neutralizing activity, pseudovirus) in [7] was 1.6 ng/mL; in [8], 2.35 µg/mL; in [9], 0.856 µg/mL; in [10], 4.7 ng/mL; in assay [11], more than 10 µg/mL; in assay [12] it was more than 10 µg/mL. The IC50 (neutralizing activity, pseudovirus) in assay [13] and in [14] was more than 10 µg/mL each time. This substance yielded a neutralization IC50 (pseudovirus) in [15] of more than 10 µg/mL.
With 4995_E20 (PGT-142) (antibody), the IC50 (neutralizing activity, pseudovirus) in assay [1] was more than 10 µg/mL; in assay [2] it was more than 10 µg/mL; in assay [3], 5.42 µg/mL; in [4], 0.272 µg/mL; in assay [5], 2.2 ng/mL; in [6] it was 0.0578 µg/mL. The IC50 (neutralizing activity, pseudovirus) is 1.7 ng/mL in assay [7]; 1.23 µg/mL in assay [8]; 0.712 µg/mL in assay [9]; 8.5 ng/mL in [10]; more than 10 µg/mL in assay [11]; more than 10 µg/mL in [12]. For the same substance, the IC50 (neutralizing activity, pseudovirus) in assay [13] and in assay [14] was more than 10 µg/mL each time. In [15], this substance displayed a neutralization IC50 (pseudovirus) of more than 10 µg/mL.
